Measurements from US20190284268A1 (ABCENTRA, published 2019).

Experiments:
Fas (human) = Fas (human) (UniProt P25445); experiment: cell-based or functional assay
oxidized LDL (oxLDL) = oxidized LDL (oxLDL) (UniProt P04114 28-4563, oxidized LDL particle; kind of oxidation not stated for this assay); experiment: cell-based or functional assay
Chain of oxidized LDL (oxLDL) (P04114 28-4563 limits assumed): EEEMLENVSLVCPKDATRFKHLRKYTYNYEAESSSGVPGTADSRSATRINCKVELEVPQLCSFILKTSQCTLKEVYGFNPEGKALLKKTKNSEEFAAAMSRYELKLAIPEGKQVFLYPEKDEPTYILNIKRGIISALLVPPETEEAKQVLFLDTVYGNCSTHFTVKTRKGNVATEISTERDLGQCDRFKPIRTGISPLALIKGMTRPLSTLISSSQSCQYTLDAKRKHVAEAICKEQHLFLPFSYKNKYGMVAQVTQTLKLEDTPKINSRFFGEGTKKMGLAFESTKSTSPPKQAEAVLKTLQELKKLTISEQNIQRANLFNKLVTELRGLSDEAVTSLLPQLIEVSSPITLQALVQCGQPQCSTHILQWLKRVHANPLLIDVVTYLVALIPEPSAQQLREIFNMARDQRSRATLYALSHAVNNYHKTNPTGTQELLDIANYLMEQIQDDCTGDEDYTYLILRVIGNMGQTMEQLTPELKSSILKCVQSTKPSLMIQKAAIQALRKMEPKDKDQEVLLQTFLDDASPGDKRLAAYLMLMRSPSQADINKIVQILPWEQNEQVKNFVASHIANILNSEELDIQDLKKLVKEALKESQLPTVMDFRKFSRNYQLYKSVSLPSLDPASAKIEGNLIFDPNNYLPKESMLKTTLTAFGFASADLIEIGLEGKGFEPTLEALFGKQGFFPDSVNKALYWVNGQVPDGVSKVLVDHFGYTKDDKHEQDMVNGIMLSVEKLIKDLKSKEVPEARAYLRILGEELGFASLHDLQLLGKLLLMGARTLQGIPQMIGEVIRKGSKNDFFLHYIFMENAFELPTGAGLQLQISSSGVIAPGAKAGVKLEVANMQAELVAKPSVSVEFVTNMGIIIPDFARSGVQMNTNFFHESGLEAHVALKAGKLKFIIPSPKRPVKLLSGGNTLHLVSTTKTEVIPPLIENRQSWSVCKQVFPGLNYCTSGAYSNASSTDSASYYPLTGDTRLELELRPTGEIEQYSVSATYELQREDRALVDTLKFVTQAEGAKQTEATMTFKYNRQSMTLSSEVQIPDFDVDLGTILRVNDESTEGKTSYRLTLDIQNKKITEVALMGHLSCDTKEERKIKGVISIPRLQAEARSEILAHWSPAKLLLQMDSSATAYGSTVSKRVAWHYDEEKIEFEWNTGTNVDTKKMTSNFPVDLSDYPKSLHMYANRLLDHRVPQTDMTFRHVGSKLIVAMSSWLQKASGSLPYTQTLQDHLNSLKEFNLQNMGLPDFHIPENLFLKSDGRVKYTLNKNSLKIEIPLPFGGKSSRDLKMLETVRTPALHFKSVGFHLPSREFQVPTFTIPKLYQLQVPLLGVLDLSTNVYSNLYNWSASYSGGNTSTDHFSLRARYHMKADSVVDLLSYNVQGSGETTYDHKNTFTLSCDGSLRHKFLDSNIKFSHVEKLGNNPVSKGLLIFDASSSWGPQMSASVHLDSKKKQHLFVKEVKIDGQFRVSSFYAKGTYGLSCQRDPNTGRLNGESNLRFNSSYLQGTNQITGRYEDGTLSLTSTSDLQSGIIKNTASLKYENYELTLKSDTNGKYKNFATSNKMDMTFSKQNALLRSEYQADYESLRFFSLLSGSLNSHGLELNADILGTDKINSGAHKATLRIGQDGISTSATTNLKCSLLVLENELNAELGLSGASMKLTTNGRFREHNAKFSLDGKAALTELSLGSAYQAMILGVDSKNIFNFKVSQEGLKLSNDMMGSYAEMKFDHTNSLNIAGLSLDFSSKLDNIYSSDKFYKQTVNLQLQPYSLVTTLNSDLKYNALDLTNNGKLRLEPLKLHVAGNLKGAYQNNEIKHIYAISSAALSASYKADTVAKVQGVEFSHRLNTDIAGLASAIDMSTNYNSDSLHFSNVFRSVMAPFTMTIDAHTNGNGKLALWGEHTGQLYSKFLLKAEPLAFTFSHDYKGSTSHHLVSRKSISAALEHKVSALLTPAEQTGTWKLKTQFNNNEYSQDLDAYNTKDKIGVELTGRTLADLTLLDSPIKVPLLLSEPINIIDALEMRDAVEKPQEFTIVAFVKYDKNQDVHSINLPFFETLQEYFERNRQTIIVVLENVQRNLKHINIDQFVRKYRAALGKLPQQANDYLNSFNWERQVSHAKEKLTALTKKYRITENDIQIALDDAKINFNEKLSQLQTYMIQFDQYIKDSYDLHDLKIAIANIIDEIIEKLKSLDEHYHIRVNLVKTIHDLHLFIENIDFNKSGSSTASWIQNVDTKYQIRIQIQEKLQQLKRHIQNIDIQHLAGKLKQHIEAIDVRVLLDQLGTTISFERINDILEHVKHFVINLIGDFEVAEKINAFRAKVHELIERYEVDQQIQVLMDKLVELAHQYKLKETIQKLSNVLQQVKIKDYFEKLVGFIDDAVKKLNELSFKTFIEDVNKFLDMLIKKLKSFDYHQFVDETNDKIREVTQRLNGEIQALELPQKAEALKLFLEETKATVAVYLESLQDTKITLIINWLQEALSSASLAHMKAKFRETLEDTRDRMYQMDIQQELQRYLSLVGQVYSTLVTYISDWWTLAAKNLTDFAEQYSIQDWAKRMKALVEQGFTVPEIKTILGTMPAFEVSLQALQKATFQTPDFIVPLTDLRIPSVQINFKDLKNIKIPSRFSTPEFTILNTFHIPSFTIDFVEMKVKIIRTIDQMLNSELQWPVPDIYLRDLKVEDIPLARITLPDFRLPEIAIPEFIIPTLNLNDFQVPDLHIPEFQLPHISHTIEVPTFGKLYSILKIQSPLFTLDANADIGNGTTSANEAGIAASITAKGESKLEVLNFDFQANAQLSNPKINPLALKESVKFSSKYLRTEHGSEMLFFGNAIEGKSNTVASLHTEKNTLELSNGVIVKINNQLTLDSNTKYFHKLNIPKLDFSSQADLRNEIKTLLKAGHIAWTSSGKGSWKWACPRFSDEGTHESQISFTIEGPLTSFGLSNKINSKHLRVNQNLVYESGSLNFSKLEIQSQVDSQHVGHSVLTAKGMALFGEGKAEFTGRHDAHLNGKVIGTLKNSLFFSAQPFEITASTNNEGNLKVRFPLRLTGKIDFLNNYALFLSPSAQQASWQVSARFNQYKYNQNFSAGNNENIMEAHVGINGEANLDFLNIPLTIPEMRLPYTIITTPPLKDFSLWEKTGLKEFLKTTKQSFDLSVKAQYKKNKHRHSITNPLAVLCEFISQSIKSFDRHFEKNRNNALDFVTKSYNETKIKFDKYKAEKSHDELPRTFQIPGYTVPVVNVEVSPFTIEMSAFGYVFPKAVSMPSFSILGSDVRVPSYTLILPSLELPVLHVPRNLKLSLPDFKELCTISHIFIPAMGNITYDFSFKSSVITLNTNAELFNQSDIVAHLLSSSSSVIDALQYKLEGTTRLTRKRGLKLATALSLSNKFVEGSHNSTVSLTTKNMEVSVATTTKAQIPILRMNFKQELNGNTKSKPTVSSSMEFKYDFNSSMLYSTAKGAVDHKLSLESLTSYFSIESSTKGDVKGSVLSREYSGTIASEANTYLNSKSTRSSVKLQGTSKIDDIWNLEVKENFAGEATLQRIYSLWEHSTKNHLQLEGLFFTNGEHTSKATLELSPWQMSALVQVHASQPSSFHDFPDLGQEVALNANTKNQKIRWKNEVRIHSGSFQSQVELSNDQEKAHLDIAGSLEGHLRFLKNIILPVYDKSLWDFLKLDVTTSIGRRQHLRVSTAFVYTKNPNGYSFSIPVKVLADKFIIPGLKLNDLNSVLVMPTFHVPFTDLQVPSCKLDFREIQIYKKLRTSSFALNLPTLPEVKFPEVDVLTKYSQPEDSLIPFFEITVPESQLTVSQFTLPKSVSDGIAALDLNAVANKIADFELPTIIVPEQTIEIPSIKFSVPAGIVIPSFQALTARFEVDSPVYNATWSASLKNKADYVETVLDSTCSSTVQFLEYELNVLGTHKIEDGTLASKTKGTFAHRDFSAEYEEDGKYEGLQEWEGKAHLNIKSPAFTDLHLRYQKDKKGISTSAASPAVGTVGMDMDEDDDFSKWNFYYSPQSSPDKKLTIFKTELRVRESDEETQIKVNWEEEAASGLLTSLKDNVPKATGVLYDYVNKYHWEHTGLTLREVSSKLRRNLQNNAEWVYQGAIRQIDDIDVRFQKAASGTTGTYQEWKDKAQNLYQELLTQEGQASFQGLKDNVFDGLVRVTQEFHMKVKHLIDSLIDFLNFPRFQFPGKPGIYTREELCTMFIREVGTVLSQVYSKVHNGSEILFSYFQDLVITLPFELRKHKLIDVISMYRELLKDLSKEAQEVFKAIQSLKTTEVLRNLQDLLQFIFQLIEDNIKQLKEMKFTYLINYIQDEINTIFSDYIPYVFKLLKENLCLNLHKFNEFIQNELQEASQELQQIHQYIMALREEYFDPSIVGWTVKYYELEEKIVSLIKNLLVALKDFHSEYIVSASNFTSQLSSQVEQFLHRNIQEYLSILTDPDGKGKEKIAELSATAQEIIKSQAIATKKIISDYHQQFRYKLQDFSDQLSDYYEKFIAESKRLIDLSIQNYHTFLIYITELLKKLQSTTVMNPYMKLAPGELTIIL

Chain of Fas (human) (P25445 26-335): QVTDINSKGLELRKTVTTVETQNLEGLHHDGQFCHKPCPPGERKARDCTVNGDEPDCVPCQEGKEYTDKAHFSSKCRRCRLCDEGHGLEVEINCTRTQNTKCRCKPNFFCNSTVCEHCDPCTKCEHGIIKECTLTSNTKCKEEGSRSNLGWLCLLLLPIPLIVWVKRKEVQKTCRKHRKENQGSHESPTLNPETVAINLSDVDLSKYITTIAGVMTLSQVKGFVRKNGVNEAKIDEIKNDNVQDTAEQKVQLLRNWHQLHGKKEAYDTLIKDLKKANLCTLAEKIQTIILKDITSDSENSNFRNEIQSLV

Row | Molecule | release of FAS from PBMCs of SLE patients (Fas (human)) | IC50 for MCP-1 inhibition (oxidized LDL (oxLDL))
1 | soluble Fas ligand (from UniProt P48023 134-281) | 73% | –
2 | orticumab (antibody, human IgG1, lambda, V domains shown) VH: EVQLLESGGGLVQPGGSLRLSCAASGFTFSNAWMSWVRQAPGKGLEWVSSISVGGHRTYYADSVKGRSTISRDNSKNTLYLQMNSLRAEDTAVYYCARIRVGPSGGAFDYWGQGTLVTVSS VL: QSVLTQPPSASGTPGQRVTISCSGSNTNIGKNYVSWYQQLPGTAPKLLIYANSNRPSGVPDRFSGSKSGTSASLAISGLRSEDEADYYCASWDASLNGWVFGGGTKLTVLG | – | ~10 nM
